Laboratory results reported in PMC5075775.

Key:
[1] = test system: monoclonal anti-dsDNA antibody HYB 331-01, clone 35I9; test: ELISA; conditions: SPR: Biacore X100, SA chip, immobilisation in HBS-EP+ (0.1 M HEPES, 1.5 M NaCl, 30 mM EDTA, 0.5% P20), 37 C, ELISA: antigens coated in PBS, diluent PBS …
[2] = test system: monoclonal anti-DNA antibody ED-10; test: SPR; conditions: SPR: Biacore X100, SA chip, immobilisation in HBS-EP+ (0.1 M HEPES, 1.5 M NaCl, 30 mM EDTA, 0.5% P20), 37 C, ELISA: antigens coated in PBS, diluent PBS …

| Sequence | binding signal [1] [A450] | further results |
| --- | --- | --- |
| AGGGAGGGGGAGAGGGAGAGG (double strand) [D11 (AG)] | 0.78 | – |
| ATTTATTTTT (double strand) [D16 (AT 10mer)] | 0.76 | – |
| ATTTATTTTTATATTTATATT (double strand) [D8 (AT, SEQ6)] | 1.27 | – |
| ATTTATTTTTATATTTATATTATTTATTTTTATATTTATATTATTTATTTTTATATTTATATT (double strand) [D18 (AT 63mer)] | 1.44 | – |
| CCACACCCACACCCCCACCCA (double strand) [D12 (CA)] | 0.78 | – |
| GGAGAGGGAGAGGGGGAGGGA (double strand) [D13 (GA)] | 0.89 | – |
| TAATATATTTATATTTATATT (double strand) [D2 (TA)] | 1.11 | – |
| TCCTCTCTTT (double strand) [D15 (TC 10mer)] | 0.9 | – |
| TCCTCTCTTTCTCTTTCTCTT (double strand) [D1 (SEQ5)] | 1.41 | – |
| TCCTCTCTTTCTCTTTCTCTT (double strand) [D19 (LNA pattern of SEQ1)] | – | binding signal ([1]; LNA at 4, 13, 19 of strand 1): 1.12 A450 |
| TCCTCTCTTTCTCTTTCTCTT (double strand) [D20] | – | binding signal ([1]; LNA at 1, 4 of strand 1): 0.89 A450 |
| TCCTCTCTTTCTCTTTCTCTT (double strand) [D21] | – | binding signal ([1]; LNA at 11, 13 of strand 1): 0.77 A450 |
| TCCTCTCTTTCTCTTTCTCTT (double strand) [D22] | – | binding signal ([1]; LNA at 4 of strand 1): 0.56 A450 |
| TCCTCTCTTTCTCTTTCTCTT (double strand) [SEQ4 biotinylated LNA/DNA duplex (SPR)] | – | Kd ([2]; ka 1.009e8, kd 7.860e-1, text also claims higher binding of SEQ4, LNA at 4, 10, 13, 19 of strand 1 by plus signs (Table 1 lists 4, 10, 14, 19)): 779 nM |
| TCCTCTCTTTCTCTTTCTCTT (double strand) [SEQ5 biotinylated duplex (SPR)] | – | Kd ([2]; ka 3.341e3, kd 3.531e-4): 106 nM |
| TCCTCTCTTTCTCTTTCTCTTTCCTCTCTTTCTCTTTCTCTTTCCTCTCTTTCTCTTTCTCTT (double strand) [D17 (TC 63mer)] | 1.5 | – |
| TGAACTCTATGTCTGTATCAT (double strand) [D14 (ATCG mixmer, SEQ7)] | 1.55 | – |
| TGGTGTGTTTGTGTTTGTGTT (double strand) [D3 (TG)] | 1.13 | – |
| TTATATTTATATTTATATAAT (double strand) [D6 (AT)] | 1 | – |
| TTCTCTTTCTCTTTCTCTCCT (double strand) [D5 (CT)] | 0.98 | – |
| TTGTGTTTGTGTTTGTGTGGT (double strand) [D7 (GT)] | 1.87 | – |
